Results from US7754689B2, “Finger-1 peptide analogs of the TGF-β superfamily” (Wyeth LLC, priority 2006, dated 2010).
Where “and” joins values, the source holds several entries; their conditions need not be identical. Identical values can stand only once.

Columns and labels:
[1] = BMP solubility screen: A320 turbidity of BMP-12 solutions; assay type: physicochemical; settings: 50 mM Tris pH 8, 0.5 mg/mL BMP-12
Experimental: BMP Solubility Screen—A Tecan liquid-handling robot was used to mix a master plate of reagents, 800 μL×1.25 concentration (for each solution; see Tables 2 and 3), each in 50 mM Tris buffer at pH 8. An eight-channel pipettor was used to transfer 80 μL of material from the master plate into a half-area UV microplate, from which A320 was read from each sample to define a blank. A repeat-pipettor was used to add 20 μL of 2.5 mg/mL BMP-12 in 0.1% TFA to make a 0.5 mg/mL solution, which was then agitated at 14000 rpm. The UV absorption (A320) was read and the blank absorption subtracted to determine solubility. The procedure was repeated with a wider range of 2-methyl-2,4-pentanediol (MPD) concentrations and a finer set of salt concentrations (Table 4).

BMP-12 = biological target: T1, BMP-12 (Homo sapiens, UniProt Q7Z4P5); test: Affinity column chromatography, capture and elution of BMP-12; assay type: binding
T1 sequence (Q7Z4P5 322-450): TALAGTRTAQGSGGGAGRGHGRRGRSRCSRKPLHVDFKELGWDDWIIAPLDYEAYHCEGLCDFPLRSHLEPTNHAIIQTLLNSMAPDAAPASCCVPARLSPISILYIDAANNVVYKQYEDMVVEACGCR
Experimental: BMP-12 was immobilized on NHS-activated Sepharose™ beads at a ratio of about 20 mg:4 mL and the resulting media combined with water or neutral saline buffer to prepare a column. CHO-conditioned media augmented with 1.2 M NaCl was loaded onto the column. In some cases, the media was preconcentrated with respect to BMP before loading. The column was washed with 15 CV (column volumes) of 1.2 M NaCl in 40 mM Na2HPO4 at pH 7.2, followed by 0.5 M arginine/0.5 M NaCl in 20 mM Tris at pH 7.5 (15 CV) and a low salt wash (50 mM ammonium acetate at pH 7, 15 CV). […] Finally, the column was eluted with 5CV of the acetic acid solution with 6M guanidine hydrochloride (GuHCl).
BMP-12 was loaded and eluted from a BMP-12 affinity column as in Example 1.
BMP-12 was purified using a column prepared with the BMP-12 wild type peptide described in Example 7.

BMP-3 and BMP-12 = test: HPLC columns of BMP affinity resins loaded with BMP-3 and BMP-12; assay type: binding; settings: columns loaded with BMP-3 and BMP-12
Source text: These columns were used loaded with BMP-3 and BMP-12. […] In some cases, size exclusion or reverse phase chromatography techniques were employed to enhance purification.

B1: BMP-12: Bone Morphogenic Protein, member of the TGF-β superfamily; tested in solution and immobilized on Sepharose beads as affinity ligand (protein)
chain: TALAGTRTAQGSGGGAGRGHGRRGRSRCSRKPLHVDFKELGWDDWIIAPLDYEAYHCEGLCDFPLRSHLEPTNHAIIQTLLNSMAPDAAPASCCVPARLSPISILYIDAANNVVYKQYEDMVVEACGCR
- A320 minus blank (turbidity) ([1]; NaCl 0.5 M, 2-methyl-2,4-pentanediol 5%): 2.414
- A320 minus blank (turbidity) ([1]; NaCl 0.5 M, 2-methyl-2,4-pentanediol 10%): 2.258
- A320 minus blank (turbidity) ([1]; NaCl 0.5 M, 2-methyl-2,4-pentanediol 15%): 1.420
- A320 minus blank (turbidity) ([1]; NaCl 0.5 M, 2-methyl-2,4-pentanediol 20%): 0.165
- A320 minus blank (turbidity) ([1]; NaCl 0.5 M, 2-methyl-2,4-pentanediol 25%): 0.020 and 0.038
- A320 minus blank (turbidity) ([1]; NaCl 0.50 M, 2-methyl-2,4-pentanediol 30%): −0.091
- A320 minus blank (turbidity) ([1]; NaCl 0.50 M, 2-methyl-2,4-pentanediol 35%): 0.026
- A320 minus blank (turbidity) ([1]; NaCl 0.50 M, 2-methyl-2,4-pentanediol 40%): 0.024
- A320 minus blank (turbidity) ([1]; NaCl 0.50 M, 2-methyl-2,4-pentanediol 45%): −0.008
- A320 minus blank (turbidity) ([1]; NaCl 0.75 M, 1-propanol 0%): 1.911
- A320 minus blank (turbidity) ([1]; NaCl 0.75 M, 1-propanol 2.5%): 2.023
- A320 minus blank (turbidity) ([1]; NaCl 0.75 M, 1-propanol 5%): 1.541
- A320 minus blank (turbidity) ([1]; NaCl 0.75 M, 1-propanol 10%): 1.032
- A320 minus blank (turbidity) ([1]; NaCl 0.75 M, 1-propanol 15%): 0.094
- A320 minus blank (turbidity) ([1]; NaCl 0.75 M, 1-propanol 25%): −0.003
- A320 minus blank (turbidity) ([1]; NaCl 0.75 M, 2-methyl-2,4-pentanediol 2.5%): 1.985
- A320 minus blank (turbidity) ([1]; NaCl 0.75 M, 2-methyl-2,4-pentanediol 5%): 2.076
- A320 minus blank (turbidity) ([1]; NaCl 0.75 M, 2-methyl-2,4-pentanediol 10%): 2.211
- A320 minus blank (turbidity) ([1]; NaCl 0.75 M, 2-methyl-2,4-pentanediol 15%): 0.818
- A320 minus blank (turbidity) ([1]; NaCl 0.75 M, 2-methyl-2,4-pentanediol 20%): 0.099
- A320 minus blank (turbidity) ([1]; NaCl 0.75 M, 2-methyl-2,4-pentanediol 25%): 0.001
- A320 minus blank (turbidity) ([1]; NaCl 1 M, 1-propanol 0%): 1.988
- A320 minus blank (turbidity) ([1]; NaCl 1 M, 1-propanol 2.5%): 1.601
- A320 minus blank (turbidity) ([1]; NaCl 1 M, 1-propanol 5%): 1.817
- A320 minus blank (turbidity) ([1]; NaCl 1 M, 1-propanol 10%): 1.000
- A320 minus blank (turbidity) ([1]; NaCl 1 M, 1-propanol 15%): 0.040
- A320 minus blank (turbidity) ([1]; NaCl 1 M, 1-propanol 25%): −0.010
- A320 minus blank (turbidity) ([1]; NaCl 1 M, 2-methyl-2,4-pentanediol 2.5%): 2.133
- A320 minus blank (turbidity) ([1]; NaCl 1 M, 2-methyl-2,4-pentanediol 5%): 1.903
- A320 minus blank (turbidity) ([1]; NaCl 1 M, 2-methyl-2,4-pentanediol 10%): 2.110
- A320 minus blank (turbidity) ([1]; NaCl 1 M, 2-methyl-2,4-pentanediol 15%): 0.400
- A320 minus blank (turbidity) ([1]; NaCl 1 M, 2-methyl-2,4-pentanediol 20%): 0.089
- A320 minus blank (turbidity) ([1]; NaCl 1 M, 2-methyl-2,4-pentanediol 25%): −0.015
- A320 minus blank (turbidity) ([1]; NaCl 1.25 M, 1-propanol 0%): 1.702
- A320 minus blank (turbidity) ([1]; NaCl 1.25 M, 1-propanol 2.5%): 1.376
- A320 minus blank (turbidity) ([1]; NaCl 1.25 M, 1-propanol 5%): 1.643
- A320 minus blank (turbidity) ([1]; NaCl 1.25 M, 1-propanol 10%): 1.018
- A320 minus blank (turbidity) ([1]; NaCl 1.25 M, 1-propanol 15%): 0.033
- A320 minus blank (turbidity) ([1]; NaCl 1.25 M, 1-propanol 25%): 0.022
- A320 minus blank (turbidity) ([1]; NaCl 1.25 M, 2-methyl-2,4-pentanediol 2.5%): 1.819
- A320 minus blank (turbidity) ([1]; NaCl 1.25 M, 2-methyl-2,4-pentanediol 5%): 1.643
- A320 minus blank (turbidity) ([1]; NaCl 1.25 M, 2-methyl-2,4-pentanediol 10%): 1.688
- A320 minus blank (turbidity) ([1]; NaCl 1.25 M, 2-methyl-2,4-pentanediol 15%): 0.257
- A320 minus blank (turbidity) ([1]; NaCl 1.25 M, 2-methyl-2,4-pentanediol 20%): 0.040
- A320 minus blank (turbidity) ([1]; NaCl 1.25 M, 2-methyl-2,4-pentanediol 25%): −0.011
- A320 minus blank (turbidity) ([1]; NaCl 1.5 M, 1-propanol 0%): 1.981
- A320 minus blank (turbidity) ([1]; NaCl 1.5 M, 1-propanol 2.5%): 1.358
- A320 minus blank (turbidity) ([1]; NaCl 1.5 M, 1-propanol 5%): 1.598
- A320 minus blank (turbidity) ([1]; NaCl 1.5 M, 1-propanol 10%): 0.973
- A320 minus blank (turbidity) ([1]; NaCl 1.5 M, 1-propanol 15%): 0.036
- A320 minus blank (turbidity) ([1]; NaCl 1.5 M, 1-propanol 25%): 0.478
- A320 minus blank (turbidity) ([1]; NaCl 1.5 M, 2-methyl-2,4-pentanediol 2.5%): 1.767
- A320 minus blank (turbidity) ([1]; NaCl 1.5 M, 2-methyl-2,4-pentanediol 5%): 1.521
- A320 minus blank (turbidity) ([1]; NaCl 1.5 M, 2-methyl-2,4-pentanediol 10%): 1.798
- A320 minus blank (turbidity) ([1]; NaCl 1.5 M, 2-methyl-2,4-pentanediol 15%): 0.227
- A320 minus blank (turbidity) ([1]; NaCl 1.5 M, 2-methyl-2,4-pentanediol 20%): 0.045
- A320 minus blank (turbidity) ([1]; NaCl 1.5 M, 2-methyl-2,4-pentanediol 25%): 0.003
- capture of BMP-12 by column with immobilized ligand (BMP-12; high salt / high ionic strength load): effectively captured
- elution of BMP-12 from column with immobilized ligand (BMP-12; washes, then gradient to 50 mM acetic acid pH 3, then 6M GuHCl): eluted with acetic acid and guanidine
- effectiveness as affinity ligand for reverse phase HPLC (BMP-3 and BMP-12): equally effective
